Where a chain is given by its changes, count along the chain named. Values belong to the binder of their own block, whether it stands above or below them.
Columns and labels:
rat NPR1 (rNPR1) [1] = target: T1, rat NPR1 (rNPR1) (rat, UniProt P18910 29-469, limits assumed); test: SET, FabCys
T1 construct: Soluble antigen
T1 sequence: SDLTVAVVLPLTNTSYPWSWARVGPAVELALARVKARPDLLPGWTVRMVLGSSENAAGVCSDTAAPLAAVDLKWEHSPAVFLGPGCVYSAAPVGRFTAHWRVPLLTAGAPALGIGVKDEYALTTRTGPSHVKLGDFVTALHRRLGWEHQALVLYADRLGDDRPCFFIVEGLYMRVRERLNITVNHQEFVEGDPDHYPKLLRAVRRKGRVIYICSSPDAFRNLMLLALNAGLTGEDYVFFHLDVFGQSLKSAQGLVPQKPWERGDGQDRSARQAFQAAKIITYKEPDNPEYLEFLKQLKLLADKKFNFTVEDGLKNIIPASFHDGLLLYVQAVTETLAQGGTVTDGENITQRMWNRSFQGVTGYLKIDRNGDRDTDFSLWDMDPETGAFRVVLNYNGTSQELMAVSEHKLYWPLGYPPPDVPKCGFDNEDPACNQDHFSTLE

[2] = target: T2, human Natriuretic Peptide Receptor 1 (hNPR1) (human, UniProt P16066 33-473, limits assumed); test: SET, FabCys
T2 construct: pannings used NPR1-hFc; also called NPR1-hFc
T2 sequence: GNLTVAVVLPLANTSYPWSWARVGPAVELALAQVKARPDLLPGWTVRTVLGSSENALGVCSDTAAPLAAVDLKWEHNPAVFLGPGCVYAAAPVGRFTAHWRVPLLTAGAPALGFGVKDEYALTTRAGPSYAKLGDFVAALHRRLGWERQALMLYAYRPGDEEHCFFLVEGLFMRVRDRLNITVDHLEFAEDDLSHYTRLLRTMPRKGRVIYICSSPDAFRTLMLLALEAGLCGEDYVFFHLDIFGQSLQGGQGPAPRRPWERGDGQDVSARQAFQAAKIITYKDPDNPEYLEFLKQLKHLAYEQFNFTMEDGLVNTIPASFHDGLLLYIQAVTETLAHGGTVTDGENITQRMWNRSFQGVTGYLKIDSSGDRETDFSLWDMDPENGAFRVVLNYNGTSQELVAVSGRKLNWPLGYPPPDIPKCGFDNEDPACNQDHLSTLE

rNPR1-ANP complex [3] = target: T3, rNPR1-ANP complex (rat, UniProt P01160 124-151 (human entry), limits assumed); test: SET, FabCys
T3 construct: rNPR1 antigen in the presence of ANP; also called rNPR1 + 100 nM ANP
T3 sequence: T1 sequence
T3 sequence (peptide): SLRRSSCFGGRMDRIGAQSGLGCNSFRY

hNPR1-ANP complex [4] = target: T4, hNPR1-ANP complex (human, UniProt P01160 124-151, limits assumed); test: SET, FabCys
T4 construct: hNPR1 antigen in the presence of ANP; also called hNPR1 + 100 nM ANP
T4 sequence: T2 sequence
T4 sequence (peptide): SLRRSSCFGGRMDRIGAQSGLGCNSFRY

rat NPR1 (rNPR1) [5] = target: T1, rat NPR1 (rNPR1); test: Octet, FabCys
rNPR1-ANP complex [6] = target: T3, rNPR1-ANP complex; test: Octet, FabCys
hNPR1-ANP complex [7] = target: T4, hNPR1-ANP complex; test: Octet, FabCys
[8] = target: T2, human Natriuretic Peptide Receptor 1 …; test: FabCys, parental value by Octet (table comment), as in Table 14
rNPR1-ANP complex [9] = target: T3, rNPR1-ANP complex; test: as above
hNPR1-ANP complex [10] = target: T4, hNPR1-ANP complex; test: as above
[11] = target: T5, human NPR1 on CHO-K1 cells (human, UniProt P16066 33-1061); test: cell-based or functional assay
T5 sequence: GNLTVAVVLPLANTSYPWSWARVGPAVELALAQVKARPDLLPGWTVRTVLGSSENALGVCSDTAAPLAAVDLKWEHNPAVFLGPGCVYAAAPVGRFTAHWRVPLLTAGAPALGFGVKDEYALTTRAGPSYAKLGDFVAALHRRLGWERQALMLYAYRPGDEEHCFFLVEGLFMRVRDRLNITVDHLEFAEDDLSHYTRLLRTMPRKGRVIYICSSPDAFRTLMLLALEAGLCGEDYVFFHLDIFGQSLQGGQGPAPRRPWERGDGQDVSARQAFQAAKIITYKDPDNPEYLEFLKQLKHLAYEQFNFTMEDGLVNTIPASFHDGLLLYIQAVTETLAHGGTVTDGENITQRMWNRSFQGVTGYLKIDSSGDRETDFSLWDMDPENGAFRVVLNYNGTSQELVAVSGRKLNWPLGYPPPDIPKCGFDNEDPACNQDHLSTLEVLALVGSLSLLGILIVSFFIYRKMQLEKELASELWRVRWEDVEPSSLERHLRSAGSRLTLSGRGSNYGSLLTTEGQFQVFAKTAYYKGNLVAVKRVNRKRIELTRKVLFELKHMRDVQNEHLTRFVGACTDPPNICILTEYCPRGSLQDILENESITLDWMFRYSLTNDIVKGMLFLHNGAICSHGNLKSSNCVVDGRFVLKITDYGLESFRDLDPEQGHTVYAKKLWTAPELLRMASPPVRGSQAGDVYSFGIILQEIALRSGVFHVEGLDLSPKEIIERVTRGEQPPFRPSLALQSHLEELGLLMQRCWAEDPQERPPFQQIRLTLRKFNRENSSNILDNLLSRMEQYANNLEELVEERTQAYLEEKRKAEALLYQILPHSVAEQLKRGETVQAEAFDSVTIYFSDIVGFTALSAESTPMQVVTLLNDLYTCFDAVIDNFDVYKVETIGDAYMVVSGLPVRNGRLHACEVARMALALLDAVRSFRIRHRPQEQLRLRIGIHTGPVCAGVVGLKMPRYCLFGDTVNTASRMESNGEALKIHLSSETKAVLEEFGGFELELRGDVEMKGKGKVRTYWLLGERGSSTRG

[12] = target: T2, human Natriuretic Peptide Receptor 1 …; test: FabCys affinity (Octet per Table 18 comment)
rNPR1-ANP complex [13] = target: T3, rNPR1-ANP complex; test: FabCys affinity (Octet per Table 18 comment)
hNPR1-ANP complex [14] = target: T4, hNPR1-ANP complex; test: FabCys affinity (Octet per Table 18 comment)
[15] = target: T6, human NPR1 on CHO-K1 cells in the presence of ANP (human, UniProt P01160 124-151); test: flow cytometry (FL2-H) on hNPR1 CHO-K1 cells with saturating ANP, IgG titrated; control parental CHO-K1 [Cont.), panel XX12]
T6 construct: also called hNPR1 CHO K1 + 100 nM ANP
T6 sequence: T5 sequence
T6 sequence (peptide): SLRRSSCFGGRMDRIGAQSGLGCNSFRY

hNPR1-ANP complex [16] = target: T4, hNPR1-ANP complex; test: FRET ANP competition assay, IgG titrated on hNPR1 with Cy5-labeled ANP; negative values mean more ANP signal [Cont.), panel XX12]
Procedure: (§1) The same 31 IgGs were tested for ANP competition using a Fluorescence Resonance Energy Transfer (FRET)-based assay in which the NPR1-specific antibodies competed with ANP for binding to NPR1. In this FRET based assay (see FIG. 3), Eu-labeled Streptavidin (for measurement of IgGs) or Eu-labeled anti-hFc antibody (for measurement of FabCys) was used as an energy donor, while Cy5-labeled ANP was used as an acceptor (for all measurements). The resulting fluorescent signal was decreased by ANP-competitive antibodies. The assay was performed as follows: antibodies were mixed with NPR1 and incubated for 5 minutes at room temperature. After addition of the Eu-labeled donor and incubation for 30 minutes at room temperature, the Cy5-ANP solution was added. After a further 60-minute incubation, readout was performed using a TECAN Infinite M1000 Pro using an excitation wavelength of 317 nm and an emission wavelength of 665 nm. Percentage of ANP competition was calculated according to the following formulae: […]

hNPR1-ANP complex [17] = target: T4, hNPR1-ANP complex; test: FRET ANP competition assay, IgG titrated on hNPR1 with Cy5-labeled ANP; negative values mean more ANP signal [Cont.), panel XX07]
Procedure: as §1, with “After addition of the Eu-labeled donor and incubation for 30 minutes at room temperature, the Cy5-ANP solution was added.” left out
Furthermore, the clones were tested via ELISA for binding to the following antigens: human NPR1, constitutively active human NPR1 mutant (W74R), rat NPR1, human NPR3 (counter target), each in the absence and presence of ANP, and BSA. The clones were also analyzed by flow cytometry for binding to human NPR1 expressing CHO K1 cells in absence and presence of ANP (100 nM) and to parental CHO K1 cells.

[18] = target: T6, human NPR1 on CHO-K1 cells in the …; test: flow cytometry (FL2-H) on hNPR1 CHO-K1 cells with saturating ANP, IgG titrated; control parental CHO-K1 [Cont.), panel XX07]
rNPR1-ANP complex [19] = target: T3, rNPR1-ANP complex; test: FabCys, parental value by Biacore, as in Table 5
hNPR1-ANP complex [20] = target: T4, hNPR1-ANP complex; test: FabCys, parental value by Biacore, as in Table 5
[21] = target: T5, human NPR1 on CHO-K1 cells; test: cell-based or functional assay; remark: listed apart in the source
rNPR1-ANP complex [22] = target: T3, rNPR1-ANP complex; test: FabCys affinity (Biacore per paragraph 323)
hNPR1-ANP complex [23] = target: T4, hNPR1-ANP complex; test: FabCys affinity (Biacore per paragraph 323)

B4: XX07 (IgG format) (antibody, V domains shown)
VH: QVQLLESGGGLVQPGGSLRLSCAASGFTFSSYWMNWVRQAPGKGLEWVSAISSDGSYTYYADSVKGRFTISRDNSKNTLYLQMNSLRAEDTAVYYCARDRYSMIYSYGAGAFDYWGQGTLVTVSS
VL: DIQMTQSPSSLSASVGDRVTITCRASQGISSYLAWYQQKPGKAPKLLIYTASTLQSGVPSRFSGSGSGTDFTLTISSLQPEDFATYYCQQIWTVPRTFGQGTKVEIK
EC50 (read off the curve) (hNPR1-ANP complex [17]): ~0.3 nM | EC50 (read off the curve) [18]: ~2 nM

B5: WW01 (FabCys format) (Fab, V domains shown)
VH: QVQLLESGGGLVQPGGSLRLSCAASGFTFNTHYIHWVRQAPGKGLEWVSSISGSGSNTYYADSVKGRFTISRDNSKNTLYLQMNSLRAEDTAVYYCARERGYVYYHMFDPWGQGTLVTVSS
VL: DIVLTQSPATLSLSPGERATLSCRASQSITRNYLAWYQQKPGQAPRLLIYGASSRATGIPARFSGSGSGTDFTLTISSLEPEDFAVYYCQQHSMYPRTFGQGTKVEIK
notes: Monovalent disulfide-bridged FabCys
Kd (rNPR1-ANP complex [19]): 2 nM | Kd (hNPR1-ANP complex [20]): 1.5 nM | cGMP conc [nM] at 2 µM FabCys, +0.075 nM ANP [21]: 121 nM | cGMP conc [nM] at 2 µM FabCys, without ANP [21]: 30 nM | Kd (rNPR1-ANP complex [22]): 2 nM | Kd (hNPR1-ANP complex [23]): 1.5 nM

Second part, the binder after the results:

Kd (rat NPR1 (rNPR1) [1]): 2.3 nM | Kd [2]: 9.9 nM | Kd (rNPR1-ANP complex [3]): 1.4 nM | Kd (hNPR1-ANP complex [4]): 1.3 nM | Kd (rat NPR1 (rNPR1) [5]): 66 nM | Kd (rNPR1-ANP complex [6]): 0.1 nM | Kd (hNPR1-ANP complex [7]): 0.14 nM
B1: ZZ13 (FabCys format) (Fab, V domains shown)
VH: EVQLVESGGGLVQPGGSLRLSCAASGFTFSRYYINWVRQAPGKGLEWVASIHQHGLETRYVESVKGRFTISRDNAKNSLYLQMNSLRAEDTAVYYCARSLRRRSTEHAGFDVWGQGTLVTVSS
VL: B4 VL with S31N, A43V, T50A, F83V, I91A, W92D, T93K, V94F, R96Y
notes: Monovalent FabCys

Kd [8]: 4.9 nM | Kd (rNPR1-ANP complex [9]): 1 nM | Kd (hNPR1-ANP complex [10]): 1.1 nM | cGMP conc [nM] at 1 µM FabCys, +0.075 nM ANP [11]: 67 nM | cGMP conc [nM] at 1 µM FabCys, without ANP [11]: 18 nM | Kd [12]: 4.9 nM | Kd (rNPR1-ANP complex [13]): 1 nM | Kd (hNPR1-ANP complex [14]): 1.1 nM
B2: YY04 (FabCys format) (Fab, V domains shown)
VH: EVQLVESGGGLVKPGGSLRLSCAASGFTFSNYWISWVRQAPGKGLEWVGRIKSKTYGGTTDYAEPVKGRFTISRDDSKNTLYLQMNSLKTEDTAVYYCAREKYSIRARGHGDYGFDVWGQGTLVTVSS
VL: B4 VL with S31N, A43V, T50A, F83V, I91G, W92Y, T93H, V94A, R96F
notes: Monovalent FabCys

EC50 (read off the curve) [15]: ~0.8 nM | EC50 (read off the curve) (hNPR1-ANP complex [16]): ~0.4 nM
B3: XX12 (IgG format) (antibody, V domains shown)
VH: B4 VH
VL: B4 VL with T93M, V94A

— patent US20240052042A1 (Novartis, published 2024)
